Source: patent US10323078B2, “Isolated peptides and fragments thereof from fibrinogen for use as drugs, particularly in skin inflammatory diseases” (Universite Paris Descartes, priority 2015, dated 2019)

Assays:
[1] = test system: Pfg binding to fibrinogen; experiment: Inhibition of biotinylated Pfg binding to coated fibrinogen; set-up: species or system Propionibacterium acnes; settings: biotinylated Pfg pretreated with increasing amount of recombinant peptide 1 h at 37° C.; fibrinogen coated 25 μg per well
Description: FIG. 9: Dose-dependent inhibition of biotinylated Pfg binding to fibrinogen by fibrinogen-derived peptide. Biotinylated PFg (0.4 mg) was pretreated with increasing amount of recombinant peptides Fg1 (♦), Fg2 (▪) or BSA as control (●) for 1 h at 37° C., and the binding activity to coated fibrinogen on polystyrene plate (25 μg per well) was evaluated. Results are expressed as mean±SD. Each point was done in quadruplet.
Since it has been shown that only Fg1 was able to recognize Pfg, biotinylated Pfg was pre-treated with various concentrations of purified Fg1 and tested its ability to recognize immobilized fibrinogen. Fg2 and BSA were used as neative controls (FIG. 9).

ThP1 cells = experiment: H2O2 production by P. acnes-stimulated ThP1; type: cell-based, human; settings: 0.87 to 7 μM
Description: For experiences of stimulation with P. acnes, cells were incubated with the P. acnes suspension adjusted at the appropriate concentration, pre-treated for 1 h at 37° C. or not with fibrinogen recombinant peptides Fg1 and Fg2 at the concentrations 0.87, 1.75, 3.5 or 7 μM for the desired period of time at 37° C. in 5% CO2.
All cells lines (5·10^4 to 10^5 cells/well) were seeded in 96-well plates (Corning Costar, Brumath, France) and treated as previously described. After stimulation, cells were washed three times in PBS and incubated with 100 μl per wells of 5 μM DHE (for determination of O2^●−) or 5 μM H2-DCFDA (for determination of H2O2) for 30 min as described previously and fluorescence intensity was recorded every hour over a period of 5 h. Fluorescence excitation/emission maxima were for DHE: 480/610 nm and for H2-DCFDA: 507/525 nm. At the end of the experiment, the number of adherent cells was evaluated by the crystal violet assay as described below. O2^●−, and H2O2 were assayed by spectrofluorimetry on a Fusion spectrofluorimeter (PackardBell, Paris, France). Levels of ROS were calculated in each sample as follows: reactive oxygen species rate (arbitrary units/min/10^6 cells)=(fluorescence intensity [arbitrary units] at T5h—fluorescence intensity [arbitrary units] at To/300 minutes/number of adherent cells as measured by the crystal violet assay, and were expressed as arbitrary unit (A.U.).
To assess the efficacy of Fg1 recombinant peptide, the production of O2^∘− and H2O2 by HaCaT cells NHDK, THP-1, MRC5 and HDF stimulated by pretreated P. acnes strains 6919, RON and PIE was measured. The amount of ROS produced was compared to that produced by the stimulated cells with untreated bacteria. Production baseline was obtained by measuring ROS on unstimulated cells. The production of IL-1ß, IL-8, IL-12 and TNF-α was also measured in all conditions cited above. The measurement of the production of ROS is performed by spectrofluorimetry in the presence of specific fluorochromes directly on the monolayer cell. Measurement of cytokine production was performed in parallel on the cell culture supernatant.
Two sets of experiments were implemented: 1) The cells were stimulated (18 h at 37° C.) by P. acnes strains previously pretreated with Fg1 and Fg2 peptides at the final concentrations ranging from 0.87 to 7 μM for 1 h at 37° C.; and 2) The cells were pretreated first with Fg1 and Fg2 peptides at the final concentrations ranging from 0.87 to 7 μM for 24 h at 37° C. and stimulated (18 h at 37° C.) by P. acnes strains.
To assess the efficacy of the small Fg1-related peptide, the production of H2O2 by several cell lines (HaCaT, NHDK, THP-1, MRC5 and HDF) stimulated by three P. acnes strains 6919, RON and PIE was measured, in presence or not with the small peptides. The amount of H2O2 produced is compared to that produced by the stimulated cells with untreated bacteria. Production baseline is obtained by measuring H2O2 on unstimulated cells. The measurement of the production of H2O2 is performed by spectrofluorimetry in the presence of specific fluorochromes directly on the monolayer cell.
Two sets of experiments have been implemented: • I) The cells are stimulated (18 h at 37° C.) by P. acnes strains previously pretreated with Fg1.1, Fg1.2, Fg1.3, Fg1.4, and Fg1.5 small peptides at the final concentrations ranging from 2.5 to 20 μM for 1 h at 37° C.; • II) The cells are pretreated first with the five small peptides at the final concentrations ranging from 2.5 to 20 μM for 24 h at 37° C. and stimulated (18 h at 37° C.) by P. acnes strains.

NHDK cells = experiment: H2O2 production by keratinocytes stimulated by lipoteichoic acid (LTA); type: cell-based, human; settings: NHDK pre-treated 24 h with 1.75 to 7 μM, then LTA 10 μg/ml
Description: FIG. 18: Dose-dependent inhibition of H2O2 production by keratinocyte pre-treated by small Fg1-generated peptides and stimulated by lipoteichoic acid (LTA). NHDK cell were incubated for 24 h with recombinant peptide Fg1 (light gray bar) and Fg2 (dark gray bar) at concentrations ranging from 1.75 to 7 μM. Measurement of hydrogen peroxide production was realized by spectrofluorometry as described in Materials and Methods. Controls experiments were done with unstimulated NHDK cell (white bar) and HDF stimulated with LTA at 10 μg/ml (black bar). Data are means±S.D. of three separate experiments. Statistical significance is indicated by * (P<0.05), ** (P<0.01), *** (P<0.001), and **** (P<0.0001), respectively. […]
All cells lines (5·10^4 to 10^5 cells/well) were seeded in 96-well plates (Corning Costar, Brumath, France) and treated as previously described. After stimulation, cells were washed three times in PBS and incubated with 100 μl per wells of 5 μM DHE (for determination of O2^●−) or 5 μM H2-DCFDA (for determination of H2O2) for 30 min as described previously and fluorescence intensity was recorded every hour over a period of 5 h. Fluorescence excitation/emission maxima were for DHE: 480/610 nm and for H2-DCFDA: 507/525 nm. At the end of the experiment, the number of adherent cells was evaluated by the crystal violet assay as described below. […]

B1: MKRMVSWSFHKLKTMKHLLLLLLCVFLVKSQGVNDNEEGFFSARGHRPLDKKREEAPSLRPAPPPISGGGYRARPAKAAATQKKVERKAPDAGGCLHADPDLGVLC (protein)
chain: MKRMVSWSFHKLKTMKHLLLLLLCVFLVKSQGVNDNEEGFFSARGHRPLDKKREEAPSLRPAPPPISGGGRARPAKAAATQKKVERKAPDAGGCLHADPDLGVLCMKRMVSWSFHKLKTMKHLLLLLLCVFLVKSQGVNDNEEGFFSARGHRPLDKKREEAPSLRPAPPPISGGGYRARPAKAAATQKKVERKAPDAGGCLHADPDLGVLC
modifications: GST fusion; fragment Fg1
notes: fragment of Bß chain of human fibrinogen having 106 amino acids; recombinant GST-fused peptide expressed in E. coli
[1]
  Inhibition of the recognition between Pfg and human fibrinogen: dramatically decreased
ThP1 cells; P. acnes 6919, set I, bacteria first pretreated
  Inhibition of Hydrogen peroxide (H2O2) production: pos
ThP1 cells; P. acnes 6919, set II, cells first pretreated
  Inhibition of Hydrogen peroxide (H2O2) production: pos
ThP1 cells; P. acnes PIE, set I, bacteria first pretreated
  Inhibition of Hydrogen peroxide (H2O2) production: pos
ThP1 cells; P. acnes PIE, set II, cells first pretreated
  Inhibition of Hydrogen peroxide (H2O2) production: pos
ThP1 cells; P. acnes RON, set I, bacteria first pretreated
  Inhibition of Hydrogen peroxide (H2O2) production: pos
ThP1 cells; P. acnes RON, set II, cells first pretreated
  Inhibition of Hydrogen peroxide (H2O2) production: pos
NHDK cells
  Decrease of H2O2 production by LTA-stimulated cells: significantly decreases production of H2O2
